The values that follow come from PMC10540216, “Activity Guided Azide-methyllysine Photo-trapping for Substrate Profiling of Lysine Demethylases” (Journal of the American Chemical Society, 2023).

Where no end group is shown, it is not given here.

The test has as its target T1, CBX1 chromodomain.
T1 construct: Chromodomain of Chromobox protein 1 (CBX1); Expression, purification and construct limits are in the Supporting Information; also called Chromobox protein 1
Put plainly: ITC; CBX1 chromodomain and eIF4A3 K374me0/1/2/3 peptides. Particulars: both partners purified.

What is called Kd is the concentration at which binding is half-saturated. High values mean lower affinity, low ones higher affinity. Molecule GRSGRYGRKGVAINFVK (also: dimethyllysine at K374) [eIF4A3-K374me2 peptide 23] showed a Kd of 95.2 ± 1.4 µM. In turn, GRSGRYGRKGVAINFVK (also: trimethyllysine at K374) [eIF4A3-K374me3 peptide 13] returned a Kd of 23.2 ± 2 µM.
